In test [1] the target is feline APN ectodomain without the Fc fusion (dimer) (feline) (UniProt P79171). Nature of the test: cryo-EM structure.
Test [2] concerns the target FCoV-23 S domain B (receptor-binding domain), residues 529-677, avi- and His-tagged (FCoV-23 (feline coronavirus)). Description: BLI.

The Kd is the concentration at which binding is half-saturated. A higher Kd goes with weaker binding.

Chain of feline APN-Fc ectodomain (dimeric) (P79171 64-967): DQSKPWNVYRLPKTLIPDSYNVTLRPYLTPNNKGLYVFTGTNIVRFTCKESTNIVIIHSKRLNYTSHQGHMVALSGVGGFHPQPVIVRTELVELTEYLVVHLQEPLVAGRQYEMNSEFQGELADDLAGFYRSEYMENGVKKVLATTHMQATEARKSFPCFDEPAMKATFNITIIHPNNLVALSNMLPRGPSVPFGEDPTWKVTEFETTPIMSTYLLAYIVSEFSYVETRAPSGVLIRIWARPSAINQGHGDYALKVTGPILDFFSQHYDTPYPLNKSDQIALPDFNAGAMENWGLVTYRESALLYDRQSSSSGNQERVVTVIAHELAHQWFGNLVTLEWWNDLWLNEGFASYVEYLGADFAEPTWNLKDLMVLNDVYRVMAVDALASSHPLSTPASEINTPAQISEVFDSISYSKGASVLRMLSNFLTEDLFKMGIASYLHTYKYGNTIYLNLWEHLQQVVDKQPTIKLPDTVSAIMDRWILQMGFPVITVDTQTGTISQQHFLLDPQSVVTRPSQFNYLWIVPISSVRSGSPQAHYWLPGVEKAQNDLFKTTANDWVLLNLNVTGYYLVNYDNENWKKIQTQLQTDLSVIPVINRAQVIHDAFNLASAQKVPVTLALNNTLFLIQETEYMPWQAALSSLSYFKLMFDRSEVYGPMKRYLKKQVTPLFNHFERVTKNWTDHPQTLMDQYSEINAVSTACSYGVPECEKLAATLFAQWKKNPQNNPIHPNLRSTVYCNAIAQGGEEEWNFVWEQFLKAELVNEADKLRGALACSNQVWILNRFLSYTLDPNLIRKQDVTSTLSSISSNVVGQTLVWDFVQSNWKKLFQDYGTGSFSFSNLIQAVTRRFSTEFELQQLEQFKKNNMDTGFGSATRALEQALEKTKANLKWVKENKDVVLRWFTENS
Chain of feline APN ectodomain without the Fc fusion (dimer) (feline) (P79171 64-967): as above
Chain of canine APN-Fc ectodomain (dimeric) (P79143 71-975): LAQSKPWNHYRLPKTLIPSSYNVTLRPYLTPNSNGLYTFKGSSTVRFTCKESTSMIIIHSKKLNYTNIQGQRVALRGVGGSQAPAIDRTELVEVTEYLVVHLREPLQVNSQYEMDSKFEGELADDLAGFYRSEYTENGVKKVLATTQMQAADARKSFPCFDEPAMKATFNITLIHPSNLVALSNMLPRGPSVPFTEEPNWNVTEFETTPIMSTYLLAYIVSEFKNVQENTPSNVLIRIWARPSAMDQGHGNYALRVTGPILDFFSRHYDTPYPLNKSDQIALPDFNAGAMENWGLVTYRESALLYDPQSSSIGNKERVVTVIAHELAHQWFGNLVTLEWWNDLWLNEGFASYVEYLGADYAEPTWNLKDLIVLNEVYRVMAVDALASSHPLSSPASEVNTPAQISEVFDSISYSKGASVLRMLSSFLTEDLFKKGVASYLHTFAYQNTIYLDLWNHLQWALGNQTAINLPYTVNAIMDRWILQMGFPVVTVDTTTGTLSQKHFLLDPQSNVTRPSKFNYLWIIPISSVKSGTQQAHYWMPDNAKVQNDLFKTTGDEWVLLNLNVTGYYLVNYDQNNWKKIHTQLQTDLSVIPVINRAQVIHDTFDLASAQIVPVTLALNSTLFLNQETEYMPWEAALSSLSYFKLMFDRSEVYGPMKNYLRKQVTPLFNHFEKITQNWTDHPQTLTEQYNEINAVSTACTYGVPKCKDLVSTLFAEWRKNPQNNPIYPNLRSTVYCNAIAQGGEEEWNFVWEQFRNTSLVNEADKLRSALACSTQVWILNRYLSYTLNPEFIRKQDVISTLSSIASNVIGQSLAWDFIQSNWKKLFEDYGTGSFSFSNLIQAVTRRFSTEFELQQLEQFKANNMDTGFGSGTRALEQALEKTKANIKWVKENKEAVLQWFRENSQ

The substance “FCoV-23 S domain B (receptor-binding domain), residues 529-677, avi- and His-tagged (domain or fragment)” had a stoichiometry N (RBD per APN protomer) in test [1] of 1.
Turning to “canine APN-Fc ectodomain (dimeric) (from UniProt P79143 71-975) (Fc fusion)”, the equilibrium dissociation constant (Kd) in test [2] came out at 1.3 nM.
The same measure, in the same setting: the figure for “feline APN-Fc ectodomain (dimeric) (from UniProt P79171 64-967) (Fc fusion)” is 11 nM.

Values taken from paper doi:10.1101/2024.08.25.607996.
